The values below are quoted from earlier work in patent US8865021B2, “Compositions of lipids and cationic peptides” (Camurus AB, priority 2003, dated 2014).

Residues, ends and D or L forms follow the SMILES beside them. No end group written: not given here.

First the molecules themselves.
B1: IL-11 (protein, UniProt P20809 22-199, looked up)
Interleukin-11: PGPPPGPPRVSPDPRAELDSTVLLTRSLLADTRQLAAQLRDKFPADGDHNLDSLPTLAMSAGALGALQLPGVLTRLRADLLSYLRHVQWLRRAGGSSLKTLEPELGTLQARLDRLLRRLQLLMSRLALPQPPPDPPAPPLAPPSSAWGGIRAAHAILGGLHLTLDWAVRGLLLLKTRL
B2: Interferon-alpha 1/13 (protein, UniProt P01562 24-189, looked up)
Interferon alpha-1/13: CDLPETHSLDNRRTLMLLAQMSRISPSSCLMDRHDFGFPQEEFDGNQFQKAPAISVLHELIQQIFNLFTTKDSSAAWDEDLLDKFCTELYQQLNDLEACVMQEERVGETPLMNADSILAVKKYFRRITLYLTEKKYSPCAWEVVRAEIMRSLSLSTNLQERLRRKE
B3: Interferon-gamma (protein, UniProt P01579 24-161, looked up)
Interferon gamma: QDPYVKEAENLKKYFNAGHSDVADNGTLFLGILKNWKEESDRKIMQSQIVSFYFKLFKNFKDDQSIQKSVETIKEDMNVKFFNSNKKKRDDFEKLTNYSVTDLNVQRKAIHELIQVMAELSPAAKTGKRKRSQMLFRG
B4: Filgrastim (protein, UniProt P09919 31-207, looked up)
Granulocyte …: TPLGPASSLPQSFLLKCLEQVRKIQGDGAALQEKLVSECATYKLCHPEELVLLGHSLGIPWAPLSSCPSQALQLAGCLSQLHSGLFLYQGLLQALEGISPELGPTLDTLQLDVADFATTIWQQMEELGMAPALQPTQGAMPAFASAFQRRAGGVLVASHLQSFLEVSYRVLRHLAQP
modifications: N-terminal methionine, non-glycosylated
notes: neutropenia
B5: human Chorionic Gonadotropin-beta (protein, UniProt P0DN86 21-165, looked up)
Choriogonadotropin subunit …: SKEPLRPRCRPINATLAVEKEGCPVCITVNTTICAGYCPTMTRVLQGVLPALPQVVCNYRDVRFESIRLPGCPRGVNPVVSYAVALSCQCALCRRSTTDCGGPKDHPLTCDDPRFQDSSSSKAPPPSLPSPSRLPGPSDTPILPQ
notes: Infertility
B6: IL-24 (protein, UniProt Q13007 52-206, looked up)
Interleukin-24: QEFHFGPCQVKGVVPQKLWEAFWAVKDTMQAQDNITSARLLQQEVLQNVSDAESCYLVHTLLEFYLKTVFKNYHNRTVEVRTLKSFSTLANNFVLIVSQLQPSQENEMFSIRDSAHRRFLLFRRAFKQLDVEAALTKALGEVDILLTWMQKFYKL
notes: Melanoma differentiation associated protein 7
B7: IL-26 (protein, UniProt Q9NPH9 22-171, looked up)
Interleukin-26: KHKQSSFTKSCYPRGTLSQAVDALYIKAAWLKATIPEDRIKNIRLLKKKTKKQFMKNCQFQEQLLSFFMEDVFGQLQLQGCKKIRFVEDFHSLRQKLSHCISCASSAREMKSITRMKRIFYRIGNKGIYKAISELDILLSWIKKLLESSQ
B8: IL-19 (protein, UniProt Q9UHD0 25-177, looked up)
Interleukin-19: LRRCLISTDMHHIEESFQEIKRAIQAKDTFPNVTILSTLETLQIIKPLDVCCVTKNLLAFYVDRVFKDHQEPNPKILRKISSIANSFLYMQKTLRQCQEQRQCHCRQEATNATRVIHDNYDQLEVHAAAIKSLGELDVFLAWINKNHEVMFSA
notes: Melanoma differentiation associated protein-like protein

The conditions of the first data set: salmon vs human calcitonin.
Take “Calcitonin (salmon) [reference compound]”: the “potency by weight relative to the human hormone” value is “around 50 times”.

For the next data set the following is noted: Table 2.
In the case of `CC[C@H](C)[C@@H]1NC(=O)[C@H](Cc2ccc(O)cc2)NC(=O)[C@@H](N)CSSC[C@@H](C(=O)N2CCC[C@H]2C(=O)N[C@@H](CC(C)C)C(=O)NCC(N)=O)NC(=O)[C@H](CC(N)=O)NC(=O)[C@H](CCC(N)=O)NC1=O` [Oxytocin, reference compound], the “Isoelectric pH” value was 5.51 pH.
`CC(C)[C@@H]1NC(=O)[C@H](CCCNC(=N)N)NC(=O)[C@H](Cc2ccccc2)NC(=O)[C@@H](NC(=O)[C@H](Cc2c[nH]c3ccccc23)NC(=O)[C@H](CCCNC(=N)N)NC(=O)[C@@H](N)CCCNC(=N)N)CSSC[C@@H](C(=O)N[C@@H](CCCNC(=N)N)C(N)=O)NC(=O)[C@H](CCCCN)NC(=O)[C@H](CCCNC(=N)N)NC(=O)[C@H](Cc2ccc(O)cc2)NC(=O)[C@@H]2CSSC[C@H](NC1=O)C(=O)N[C@@H](Cc1ccc(O)cc1)C(=O)N[C@@H](CCCCN)C(=O)NCC(=O)N[C@@H](Cc1ccccc1)C(=O)N2` [Polyphemusin II] (HELM PEPTIDE1{R.R.W.C.F.R.V.C.Y.K.G.F.C.Y.R.K.C.R.[am]}$PEPTIDE1,PEPTIDE1,4:R3-17:R3|PEPTIDE1,PEPTIDE1,8:R3-13:R3$$$V2.0): the “Isoelectric pH” value is given as 10.1 pH.
`NC(=O)CC[C@@H]1NC(=O)[C@H](Cc2ccccc2)NC(=O)[C@H](Cc2ccc(O)cc2)NC(=O)[C@@H](N)CSSC[C@@H](C(=O)N2CCC[C@H]2C(=O)N[C@@H](CCCN=C(N)N)C(=O)NCC(N)=O)NC(=O)[C@H](CC(N)=O)NC1=O` [Vassopresin, reference compound]: the “Isoelectric pH” value was 8.06 pH.
Regarding Alteplase, the “Isoelectric pH” value is 7.61 pH.
Regarding Becaplermin, the “Isoelectric pH” value is given as 9.38 pH.
Turning to “Calcitonin (salmon) [reference compound]”, the “Isoelectric pH” value is given as 8.86 pH.
Turning to Follitropin-beta, the “Isoelectric pH” value is 5.91 pH.
Turning to GMCSF, the “Isoelectric pH” value is 5.21 pH.
As for IL-1 beta, the “Isoelectric pH” value is 5.91 pH.
As for IL-1alpha, the “Isoelectric pH” value is reported as 5.3 pH.
On to IL-4, for which the “Isoelectric pH” value is on record as 9.26 pH.
As to IL-5, the “Isoelectric pH” value is given as 7.02 pH.
As to IL-6, the “Isoelectric pH” value is 6.21 pH.
In the case of IL-7, the “Isoelectric pH” value is given as 8.72 pH.
In the case of IL-8, the “Isoelectric pH” value was 9.24 pH.
Turning to IL-10, the “Isoelectric pH” value is listed as 7.63 pH.
On to IL-13, for which the “Isoelectric pH” value is recorded as 8.81 pH.
Regarding IL-15, the “Isoelectric pH” value is recorded as 4.52 pH.
Consider IL-17, for which the “Isoelectric pH” value is 8.62 pH.
For the molecule IL-18, the “Isoelectric pH” value is on record as 5.04 pH.
For the molecule “Indolicidin (ILPWKWPWWPWRR; ends and bridges not checked; UniProt P33046 131-143, looked up) [Indolicidin (e.g. bovine), antibacterial, antifungal, anticancer, antiviral, antiparasite]”, the “Isoelectric pH” value is 12.01 pH.
For the molecule Insulin α, the “Isoelectric pH” value is listed as 3.79 pH.
Intercellular Adhesion Molecule 1: the “Isoelectric pH” value is listed as 9.51 pH.
Regarding Interleukin-1 receptor antagonist, the “Isoelectric pH” value is recorded as 8.51 pH.
As for Lepirudin, the “Isoelectric pH” value is 4.04 pH.
Turning to Magainin I, the “Isoelectric pH” value is recorded as 10 pH.
Magainin II: the “Isoelectric pH” value is 10 pH.
Consider Mellitin, for which the “Isoelectric pH” value was 12.02 pH.
As for OspA, the “Isoelectric pH” value is given as 6.72 pH.
For the molecule Pneumadin, the “Isoelectric pH” value was 4.36 pH.
Turning to “Polyphemusin I (RRWCFRVCYRGFCYRKCR; ends and bridges not checked; cysteine pairing not given here; UniProt P14215 1-18, looked up) [antibacterial, antifungal, antiviral]”, the “Isoelectric pH” value was 10.33 pH.
As to Protegrin [Protegrin (e.g. swine)], the “Isoelectric pH” value is on record as 10.66 pH.
In the case of “Secretin (HSDGTFTSELSRLRDSARLQRLLQGLV; ends and bridges not checked; UniProt P63298 33-59, looked up) [Secretin (e.g. swine), pancreatic assessment, 27 amino acids, reference compound]”, the “Isoelectric pH” value was 9.45 pH.
For “Somatostatin [Somatostatin (& analogues), reference compound]”, the “Isoelectric pH” value is listed as 9.58 pH.
As for Somatotropin, the “Isoelectric pH” value was 5.27 pH.
For the molecule “Tachyplesin I (KWCFRVCYRGICYRRCR; ends and bridges not checked; cysteine pairing not given here; UniProt P14213 24-40, looked up) [antibacterial, antiviral, 17 amino acids]”, the “Isoelectric pH” value is listed as 9.93 pH.
With Tuftsin, the “Isoelectric pH” value is recorded as 11 pH.
As for B1, the “Isoelectric pH” value is given as 11.16 pH.
As to B2, the “Isoelectric pH” value is reported as 5.18 pH.
Consider B3, for which the “Isoelectric pH” value is reported as 9.54 pH.
With B4, the “Isoelectric pH” value is recorded as 5.43 pH.
As to B5, the “Isoelectric pH” value is 8.65 pH.
For B6, the “Isoelectric pH” value is listed as 8.6 pH.
Take B7: the “Isoelectric pH” value is given as 9.99 pH.
For B8, the “Isoelectric pH” value is given as 7.8 pH.

Still in this data set, the particulars now being: approximate values.
Consider `NC(=O)CC[C@@H]1NC(=O)[C@H](Cc2ccccc2)NC(=O)[C@H](Cc2ccc(O)cc2)NC(=O)[C@@H](N)CSSC[C@@H](C(=O)N2CCC[C@H]2C(=O)N[C@@H](CCCN=C(N)N)C(=O)NCC(N)=O)NC(=O)[C@H](CC(N)=O)NC1=O` [Vassopresin, reference compound], for which the isoelectric point result is “around 8.0 pH”.
On to “Calcitonin (salmon) [reference compound]”, for which the isoelectric point was ~8.9 pH.
For the molecule Insulin α, the isoelectric point result was “around 4 pH”.
Lepirudin: the isoelectric point entry is listed as “around 4 pH”.
Take octreotide [reference compound]: the isoelectric point entry is listed as “around 8.0 pH”.
